Patent publication US20030229203A1

Experiments:
CCR1 = target: T1, CCR1 (UniProt P32246); experiment: cell-based or functional assay
T1 sequence (looked up): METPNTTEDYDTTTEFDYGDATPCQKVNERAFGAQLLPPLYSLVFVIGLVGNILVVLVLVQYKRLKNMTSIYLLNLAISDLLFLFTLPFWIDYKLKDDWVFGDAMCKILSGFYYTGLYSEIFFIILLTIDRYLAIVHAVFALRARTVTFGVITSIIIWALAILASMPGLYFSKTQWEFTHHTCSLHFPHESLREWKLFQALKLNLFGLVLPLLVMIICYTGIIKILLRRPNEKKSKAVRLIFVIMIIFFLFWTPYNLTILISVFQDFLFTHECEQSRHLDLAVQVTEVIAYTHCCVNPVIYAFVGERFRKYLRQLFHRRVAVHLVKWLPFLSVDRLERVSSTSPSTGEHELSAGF

CCR5 (human) = CCR5 (human) (UniProt P51681); experiment: cell-based or functional assay
CCR5 (human), sequence (P51681 whole entry): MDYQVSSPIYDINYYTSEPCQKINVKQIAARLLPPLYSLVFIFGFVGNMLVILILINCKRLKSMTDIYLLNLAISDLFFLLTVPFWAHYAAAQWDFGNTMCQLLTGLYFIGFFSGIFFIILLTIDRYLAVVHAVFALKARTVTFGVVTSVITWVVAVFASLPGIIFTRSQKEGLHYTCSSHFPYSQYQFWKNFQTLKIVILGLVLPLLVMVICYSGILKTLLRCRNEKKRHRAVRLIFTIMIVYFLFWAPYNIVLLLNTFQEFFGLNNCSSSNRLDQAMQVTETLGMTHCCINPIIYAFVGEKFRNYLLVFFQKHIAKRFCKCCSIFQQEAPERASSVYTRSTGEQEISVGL

RANTES(3-68), sequence (P13501 26-91 limits assumed): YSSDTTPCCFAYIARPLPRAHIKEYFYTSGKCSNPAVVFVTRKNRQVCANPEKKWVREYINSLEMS
RANTES(1-68), sequence (P13501 24-91): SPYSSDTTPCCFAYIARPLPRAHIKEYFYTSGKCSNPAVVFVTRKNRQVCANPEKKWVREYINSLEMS

Row | concentration at which the Ca2+ response saturated (Fura-2, HOS-CD4 cells expressing CCR1) (CCR1) [nM] | concentration sufficient to induce a maximal Ca2+ response (Fura-2, HEK-293 cells expressing CCR5) (CCR5 (human)) [nM] | amount required to produce a detectable Ca2+ response, relative to RANTES(1-68) (Fura-2, HOS-CD4 cells expressing CCR1) (times that for RANTES(1-68)) (CCR1) | Substance
1 | 50 | 10 | – | RANTES(1-68) (from UniProt P13501 24-91) (ligand)
2 | > 200 | 10 | 100 | RANTES(3-68) (from UniProt P13501 26-91) (ligand)
